# Laboratory results reported in paper PMC5578167.
# Legend:
# [1] = molecular target: viral CC chemokine inhibitor (vCCI), rabbitpox virus (rabbitpox virus); test: ITC
# [2] = molecular target: viral CC chemokine inhibitor (vCCI), rabbitpox, produced and refolded from E. coli (rabbitpox virus); test: ITC
binder,measurement,setting,value
"viral Macrophage Inflammatory Protein-II (vMIP-II), human herpesvirus 8 (natural protein) GDTLGASWHRPDKCCLGYQKRPLPQVLLSSWYPTSQLCSKPGVIFLTKRGRQVCADKSKDWVKKLMQQLPVTAR",stoichiometry N,[1],0.759
viral Macrophage Inflammatory Protein-II (vMIP-II) (natural protein) GDTLGASWHRPDKCCLGYQKRPLPQVLLSSWYPTSQLCSKPGVIFLTKRGRQVCADKSKDWVKKLMQQLPVTAR,Kd,[2],< 100 pM
